Laboratory results: US20220396615A1 (published 2022)

Experiments:
[1] = molecular target: T1, Tag-free human IL6 recombinant protein (GenScript, Cat. No. Z03034) (human, UniProt P05231 30-212); assay: SPR (Biacore)
[2] = molecular target: T1, Tag-free human IL6 recombinant protein …; assay: ELISA

T1 sequence (P05231 30-212, one chain of several): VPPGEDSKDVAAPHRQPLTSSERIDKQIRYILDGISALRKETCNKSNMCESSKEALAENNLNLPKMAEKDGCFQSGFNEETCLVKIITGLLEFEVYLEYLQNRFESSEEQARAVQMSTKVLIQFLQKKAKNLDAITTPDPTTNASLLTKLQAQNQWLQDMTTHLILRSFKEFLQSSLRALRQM

Binder	Kd [1] [pM]	EC50 [2] [µg/mL]
29D6B5 (antibody, V domains shown) VH: QVQLQQSGAELAEPGASVKMSCKASGYNFNNYWMHWVKQGPGQGLEWIGYIDPRTASIYYNQKFKDKATLTADKSSSTAYMQLSSLTSEDSAVYYCARILYGKYDVWGAGTTVIVSS VL: DVVLTQTPLSLPVSLGNQASISCRSSQSLVDSNGNTYLHWYLQKPGQSPKVLIHKVSNRFSGVPDRFSGSGSGTDFTLKISRVEAEDLGVYFCSQSTHVPPTFGGGTKLEIK	1950	0.0231
41A10B8 (antibody, V domains shown) VH: EVKLEESGGGLVQPGGSMKLSCAASGFTFSDAWMDWVRQSPDKGLEWVAEIRSKTYHPATYYTKSVRGRFTISRDDSKSSVYLQMNNLGAEDTGIYYCTRPRYYGGYFDYWGQGTTLTVSS VL: not shown	84.7	0.018
61G1D8 (rat) (antibody, V domains shown) VH: EVQLLESGGGLVQPGRSMKLSCAASGFTFSSFPMAWVRQTPSKALEWVATISPSGGTSYSRDSVKGRFTISRDNANSTLCLHMDSLKSEDTATYYCLRERIYNTYFDYWGQGVMVTVSS VL: DIRMTHSPASLSASLGETVSIECLPSEDISSDLAWYQQKPGKSPQLLIYNANTLPNGVPSRFSGSRSGAQYFLKINSLQSEDVATYFCQQYDSYPYTFGTGTKLELK	230	0.0196

Second part, the binder after the results:

Kd [1] [pM]	EC50 [2] [µg/mL]	Binder
0.0225		53A2F9 (rat) (antibody, V domains shown) VH: QVQLKESGPGLVQPSQTLSLTCTVSGFSLTSHTVSWIRQPPGRGLEWMGKMWSNGDTDYDSAIRSRLSITRDTSKSQVFLKINSLQTEDTAMYFCARYYFSSYGGGYFDYWGQGVMVTVSS VL: DTVLTQSPALAVSLGQRVTISCRASKSVSTYMHWYQQKSGQQPKLLIYSASNLESGVPSRFSGSGSGTDFTLTIDPVEADDIANYYCQQSDELPDTFGAGTKLELK
8770	0.0163	23A9H3 (antibody, V domains shown) VH: QVQLQQSGAELAKPGASVKMSCKTSGYTFTNYWMHWVKQRPGQGLEWIGYVIPSTGYTDYNQSFKDKATLTADKSSNTAYMQVNSLTSEDSAVYYCASLLPGFAYWGQGTLVTVSA VL: DVVMTQTPLSLPVSLGDQASISCRSSQSLVDSNGNTYLHWYLQKPGQSPKLLIYKVSNRFSGVPDRFSGSGSGTDFTLKISRVEAEDLGVYFCSQSTHVPPTFGGGTKLEIK
265	0.0153	49F10H6 (antibody, V domains shown) VH: QVQLQQPGAELVKPGASVKMSCKASGYTFTNYIIHWIKQTPGQGLEWIGAIYPGNGDTSYSQKFKDKATLTADRSSSTAYMQLSSLTSEDSAVYYCARGDAGYSAWFAYWGQGTLVTVSA VL: NIVLTQSPASLAVSLGQRATISCSASESVDSYGNNFMHWYQQRPGQPPKLLIYLASKLESGVPARFSGSGSRTEFTLTIDPVEAEDAATYYCQQNNEDPLTFGAGTKLELK
